# From the DeepSol protein solubility set
# Assay: soluble on expression in E. coli; label from the status in PepcDB or PDB records
row,Sequence,soluble on expression in E. coli
1,MGSDKIHHHHHHMELPVVVQQALGDNAPGVSFRSVSQIDTGHLLRMVLLSDDQGNLQAICRRNDMLDLEALNKRLGRDLRMMQRREQVRVRQKAGLQELPALPSLTGWPTVVDRRVDELEAVALELGEQDLGLMMPAEDFRQLTAKAARHDFAVDTANISVNLDNHAADRDQLHSAIKRFTGLRIQQRLEDTLELPPLPETAQRIIHLRVNPNAVMGDLVDVVESDPSLAAQVVSWASSSFYAAAGRVHSVHDAVSRVLGFDLVMNLAMGLALGRALKHPQDHPDGYVDYWQQAIWQAQSAGILASMMPRGQRPLFGLAYLAGLLHNFGHLVLAQVFPPHFKLVCRSLEVSPHIDSSVIEHYLLGITREQIAAQLMENWGMPDEVTLAIRYQKNPAYDGPHNVYARLLWLGRQLLTERGVALGAGESATQAVYDELGLDRELVQEQFDELVRRKDSIMAMAGMMSQGG,not soluble
2,GTAGKVIKCKAAVLWEQKQPFSIEEIEVAPPKTKEVRIKILATGICRTDDHVIKGTMVSKFPVIVGHEATGIVESIGEGVTTVKPGDKVIPLFLPQCRECNACRNPDGNLCIRSDITGRGVLADGTTRFTCKGKPVHHFMNTSTFTEYTVVDESSVAKIDDAAPPEKVCLIGCGFSTGYGAAVKTGKVKPGSTCVVFGLGGVGLSVIMGCKSAGASRIIGIDLNKDKFEKAMAVGATECISPKDSTKPISEVLSEMTGNNVGYTFEVIGHLETMIDALASCHMNYGTSVVVGVPPSAKMLTYDPMLLFTGRTWKGCVFGGLKSRDDVPKLVTEFLAKKFDLDQLITHVLPFKKISEGFELLNSGQSIRTVLTF,soluble
3,MSLDGGYRTLAAAELFKRYGHLISPVSGPIAYLHPMPGRNAGMRHMYVAGYLVCPPSAPRENRFDKLCSGKGASDAQARASALAEALERFSGVYQGDEAALRGSLAQLSAHAPPGSGPIDVNALQQYSDRQFERRERHNATTDDPRKQVPRRFTRDSVIDWTPAWSIATGARRLVPLAYCYAETPASSGADYCVHNPNGCAAGACIEEAILQGLLELVERDAVAIWWYNMLRRPAVDIESFGDPYFDALAADYASLGWRLWALDITHDLRIPVFVALARETATGRFSIGFGCHPDSRIALQRALTEVNQLLDVGASAPPPWDVDKLPDDAFLHPDPALPPVRAPARAPHGRCDLKRDIEDCVARLAAAGIDTLVVDKTRPDIGLPVVQVIAPGLCHFWPRFGAPRLYSVPVAQRWRERPRDEDALNRAEGHHHHHH,not soluble
4,MKVIEVTHPIQSNQFITENVAMAFGFFDGMHRGHDKVFQVLDEKAKEHQLKKAVMTFDPHPSVVLNPERKRTTYLTPLSDKLEMIAEHGIDYCIVINFSSRFANVTSDDFIKNYIINNHVKEVIAGFDFTFGKFGKGNMTVLQESKAFNTTIVGKQEMDSEKISTTAIRQALTDGHLQKANDELGYIYRIKGTVVQGEKRGRTIGFPTANVQPSDDYVLPKKGVYAVSMEIGPESKLHRGVANVGVKPTFHDPTRAELVIEVNIFDFNENIYGERVTVYWHHFLRPEVKFDGIDPLVKQMNEDKAQAKHLLSIDFDDDISYNI,not soluble
5,MVHNFRNDITVDWCPGCGDFGILTALTSALSELNLGSHDVAIISGIGCSGKTPHYVNAAGAHTLHGRAIPVAVGVKLTNPHLKVIVTGGDGDLMSIGAGHLVAEGRRNSGITVLMYDNAVYGLTKGQAAPTLKLGVQTKSLARPNIYDAINPIMLAISSGYSFVARGFSFEIAHLKNIIKQAIMFPGSSFIDILQPCPTYNNINTMDWYKKRVYKLDDDKSWDPVITENDPKAEEKYNKAIEKSFEWGDKIPIGVFYVNKKVPPFTERLKQYVDNYEQIPPAVQDVSTEDGKPILDPFETFKDKI,not soluble
6,MGSDKIHHHHHHMQTSHCLWQRKLVAFTSRSERMDENWKQQLATDSYGNPVRSISNLRLIFTLDENLSQIRYDTFCQDDVCFNPLFRNVNGNKIDEESVGKIQDYLERTYRLRLTQNKVFEILKTTSSERSFNPVQEFITQETWDGQPRIATAIIDYLGAEDMPLVREQTKLWFVAAVARVFSPGCKFDNVLTLPGPQGIGKSTFFKTISGKWFNDSFSFASGDKEKVETITNGWIIEISELNGLKRANDVEAAKAFLSRCSDYMRPAYGHKVVEFMRHNVFAATTNETNFLQGDNGNRRWWIIPVKGNGHVSDWLDCLQHSVPQLWAEAYTYYRQGMKLYLSPDMEIEANEIQMQHSNILVDPIMEDIEMYLEREVPVQYASWMIPTRLAYQKGAYSEPNSTMTSLNMVCARQIIEELPNDLVRRNTSKYTSQYINRLMSMIPNWKRSKQEKVKGLHPAYCDKTGRSKHPWVRVGTPSEEVCATLPSEPELPF,not soluble
7,MGSDKIHHHHHHMSLSSPASRPPLQIRATPVWSPQRDENAEHIVLSPDEQYELGRLGEIIEYRTAKLEILSQSEPADFLYLLIEGVVQACHSLKDGQRQIVAFYWPGDIFGLAEKGLYVNSSEAVTPCSVYRFPFRKLEKFLLEHPRIQQGFFVKAVHEIRTAQRHTITIGQLELPQRLAAFLVDCSEHDRYFDSESSTLSLPMLRYDIADYLGTSVEAVSRTFALLEKNGLVQRKGPRKLEISMKKLIDFSGIA,not soluble
8,MGSDKIHHHHHHMQSNLVMFPIVEVVRPGTQVKETNSTDYEGAEQQFLLLLATEDLDDNLDRQAAIVSDFEQAVSRAINGAYKRECQDDLAHRFLQRILYRINRLNLFWFDDLRQYTNERSLYLSSCRNQIEAAWQKWELAQVDVAAIQKLDVKQALIDRADADLDPPLSAASRYIREEMSEAGYRQLLAIGSFDGLVEGSRLSRILGGAANEVQCTLVRVLLEEYGNGRLSRKHSTFFAQMLAEFGMNTTPEAYFDLVPWEVLACANHNFLLTERRRYYLRYSGGLTYFEVAGPAAYRNYLAAAQRLGLSNAAMGYWELHIREDERHGRWMLDDVALPLAQRYPDDAWELVLGYDQEKLMGDRAAEAVVRSTRQAESIN,not soluble
9,MSLSKKPCAHIDCELEGGFERSIWIPVRVARLYVKNRPDLPCDWDNFREAVQLIERQCALTMVTEMLSRRDHATGEVCDKLARYGFHQPAIDFAVERATEYHFLDENRFCSYFIEERKRRGWGQRKIETELKRRHVVLDDIPGYPEDYFAVEDDLARASALLAKRRVPETRGFEKLVRFLMGKGFSYHIAADAVKARLDAEREEGHHHHHH,not soluble
10,MAHHHHHHSLITTYKTITSSTQAEFKDKGSRFIAFAYPIRTLADVKKYLDPLKEEHHKARHWCYAYRLGVDGMQFRANDDGEPSGSAGRPILGQIDSVGITDVLVVVVRYFGGTLLGVPGLIHAYKEATAQALAVAEVVEKNIEKTVWLKCEYPFLNEAIRIAKQYQADILERDLQLDCRLTVSLSLVNYEACVAAWKNTRQIEVNTEKPFEEG,soluble
11,PVNQVQSSVSWPQNGSLNSVSAPLMSYTPISFDAKIPVASVDKLRKDQDLILGTLPANSEDAGARGLFVRANDDGLQITSHGELVLDLSKRELAQLPADATIAISATEDETTAGIEGDDSTTETVERDVRPIIMGIYTELESNAAADLLNAGLNAHVEINSRFTSSPTLAKYAS,soluble
12,MNIQAIDTRHGTANQHSFSNGNCLPYTGVPFGMNFYAPQTTDQKGSWWFHPEDRTFQGYRVTHQPSPWMGDFSHLLMTPVSGSLSELSLFHAQSSYRPEESLFSPVEINLTQLRYQITSQLIPSMYGGILTIDYQQKDNHLLLTLPGRYQVKQLDDHQVAVKVINYSGCEDPDFSFYFVLHFEQPLTKWFAPSSGLEHHHHHH,not soluble
13,MTQTTQSPALIASQSSWRCVQAHDREGWLALMADDVVIEDPIGKSVTNPDGSGIKGKEAVGAFFDTHIAANRLTVTCEETFPSSSPDEIAHILVLHSEFDGGFTSEVRGVFTYRVNKAGLITNMRGYWNLDMMTFGNQE,soluble
14,METKAKNKTQLAYEYILSRIENGVYGPGYRVVIDQIARELGLSSIPVREAIRQLEAEGLVEFKPYTGAVVSNINEKEYIETLSVLAVLEGYATALGSANLTKEAINELERLNERMERALEELELERFSELNYEFHSLIYAHCGNAYLEEQIKQIWQRMKRIRVYGFTFVPQRAKASIEEHREIIRLLHEQAPPHEIEQYVRQHKINTAEAFKRRR,not soluble
15,MGKATYTVTVTNNSNGVSVDYETETPMTLLVPEVAAEVIKDLVNTVRSYDTENEHDVCGW,soluble
16,MSLLFDQGHAYQPLAEVLRPQTLTDYIGQQHILGPGKPLRQTLENRNLHSMIFWGPPGVGKTTLANVISNTVEARFEVLSAVQAGVKDIKLVAEKAKQAQAYGEVTVLFVDEVHRFNKAQQDAFLPYVENGTFIFIGATTENPSFELNSALLSRARVYVLKSFTDDDFRQLWQRARSLDERIAKLAIENDALDGLIQFADGDARRFLNFLEIAIDFFTSEAVITLDDIRELLSHQPRRFDKGGENFYDQISAFHKSVRGSSPDGALYWLCRMLDGGIDPLYLARRMVRIASEDIGNADPRALTLALNAWDSQERLGSPEGELSLAQAAVYLASAPKSNAVYTAFNAMMSAVRSSHSAEVPLHLRNAPTSLMKDLDYGRDYRYAHDEPHAYAAGEVYLPDHMQGQRFYDPVDRGLEQKIRQKLDFLKQLDEQAQNQEDEGHHHHHH,soluble
17,MKEDLLDIVCCPLDKHDLTLDADATEDGEVMAGTLTCTDCGETYPIEDGIPNLLPPDMRDDAESASALEHHHHHH,not soluble
18,MSLHIVVIGAGIVGASTALELQRDGHRVTLVEPGQPGGPQAASFGNGAWLSPASVVPMSMPGLWKKVPGYLMDPLGPLTIRWTALPALAPWLLRFIAAGATVPKVEATARALKALLSDAPERHTALAAEAGLADLVERKGLLYAYPDRAAFEAEALAWRLRRDNGIVWRELDGPALKAFEPTLHPRYGFGALVEAGAHCVDPGAYVAGLVAFAESRGLTRIEAAATGFDIVGGRLQAVRTAKGSVPCDRAVIAAGIHSRALAAEAGDKVSLASERGYHVVVATPESGPHLPVMPSDGKMANTPTRAGLRASGQVELAAVAAAPNWKRADVLLDHLLNTYPGLPRQVPEARLSRWLGHRPSTPDGVPVIGQASACTDIVHAFGHGHVGLASGPITGRLVADIIAGRPPERDIRPYAAARFRREGHHHHHH,soluble
19,MYAMKEEDCLQTFHNLQDYQDQFHLHHHPQILPWSSTSLPSFDPLHFPSNPTRYSDPVHYFNRRASSSSSSFDYNDGFVSPPPSMDHPQNHLRILSEALGPIMRRGSSFGFDGEIMGKLSAQEVMDAKALAASKSHSEAERRRRERINTHLAKLRSILPNTTKTDKASLLAEVIQHMKELKRQTSQITDTYQVPTECDDLTVDSSYNDEEGNLVIRASFCCQDRTDLMHDVINALKSLRLRTLKAEIATVGGRVKNILFLSREYDDEEDHDSYRRNFDGDDVEDYDEERMMNNRVSSIEEALKAVIEKCVHNNDESNDNNNLEKSSSGGIKRQRTSKMVNRCYN,soluble
20,MGSDKIHHHHHHMAVSSLAGLGLRREMLAEFSQSVPAQIDFFEVAPENWMALGGKYGKQFRALTERHAFFCHGLSLSIGSSAPLDIDFIKGIKAFLDLHGIAVYSEHLSYCSGSGHLYDLMPMPFTPEAVRHIAGRVKQVEDIIERPLILENISFYAAPGAQMTELEFVLAVLEEADCQLLLDVNNIYVNSINHNYDAAAYLAAMPTERIRYLHVAGHYVEAPDLIVDTHGADIVDPVWQLLCDCYALHGPLPTLLERDFNIPPIGELLQEIDRIRDYQAAAIRTSRRAG,not soluble
21,MYLTIKSIMLLRKYLLVTESQVSKCGFHIVKKKGDVLYPKRTKYSKYRKGRCSRGCKPDGTKLGFGRYGTKSCKAGRLSYRAIEAARRAIIGHFHRAMSGQFRRNGKIWVRVFADLPITGKPTEVRMGRGKGNPTGWIARVSTGQIPFEMDGVSLANARQAATLAAHKPCSSTKFVQWSLEHHHHHH,not soluble
